# Assay results from patent US20170037110A1 (IMMATICS BIOTECHNOLOGIES, published 2017).
# Molecular target: T1, HLA-A*02:01 (human)
# T1 construct: monomers captured on streptavidin plates; also called MHC class I
# Experiment: UV peptide exchange ELISA
# Source text: Candidate peptides for T cell based therapies according to the present invention were further tested for their MHC binding capacity (affinity). The individual peptide-MHC complexes were produced by UV-ligand exchange, where a UV-sensitive peptide is cleaved upon UV-irradiation, and exchanged with the peptide of interest as analyzed. Only peptide candidates that can effectively bind and stabilize the peptide-receptive MHC molecules prevent dissociation of the MHC complexes. To determine the yield of the exchange reaction, an ELISA was performed based on the detection of the light chain (p2m) of stabilized MHC complexes.
# 96 well MAXISorp plates (NUNC) were coated over night with 2 μg/ml streptavidin in PBS at room temperature, washed 4× and blocked for 1 h at 37° C. in 2% BSA containing blocking buffer. […] Peptide-MHC monomers of the UV-exchange reaction were diluted 100 fold in blocking buffer. Samples were incubated for 1h at 37° C., washed four times, incubated with 2 μg/ml HRP conjugated anti-p2m for 1h at 37° C., washed again and detected with TMB solution that is stopped with […]. Absorption was measured at 450 nm.
row,Binder,peptide exchange yield [%]
1,SLMEPPAVLLL,50 to 75
2,LLQAIKLYL,20 to 50
3,YLIDIKTIAI,20 to 50
4,SVIPQIQKV,50 to 75
5,YIFTDNPAAV,50 to 75
6,SLINGSFLV,50 to 75
7,LIIDQADIYL,50 to 75
8,ALVSKGLATV,20 to 50
9,YLLSTNAQL,≥ 75
10,ILVGGGALATV,50 to 75
11,YLFESEGLVL,50 to 75
12,SLLEADPFL,50 to 75
13,TLAEEVVAL,50 to 75
14,STMEQNFLL,≥ 75
15,LLYDAVHIVSV,50 to 75
16,FLQPVDDTQHL,50 to 75
17,ALFPGVALLLA,≥ 75
18,IILSILEQA,≥ 75
19,FLSQVDFEL,50 to 75
20,YVWGFYPAEV,50 to 75
21,GLLPTPLFGV,50 to 75
22,SLVGEPILQNV,20 to 50
23,SLASKLTTL,≥ 75

row,Binder,peptide exchange yield [%]
1,AIAGAGILYGV,20 to 50
2,YHIDEEVGF,10 to 20
3,ILPDGEDFLAV,50 to 75
4,KLIDNNINV,50 to 75
5,FLYIGDIVSL,≥ 75
6,ALLGIPLTLV,50 to 75
7,GVVDPRAISVL,20 to 50
8,FLLAEDDIYL,50 to 75
9,NLWDLTDASVV,50 to 75
10,ALYETELADA,20 to 50
11,GIMEHITKI,≥ 75
12,VQIHQVAQV,50 to 75
13,VLAYFLPEA,≥ 75
14,KIGDEPPKV,20 to 50
15,YLFDDPLSAV,20 to 50
16,GLLDGGVDILL,50 to 75
17,FLWNGEDSALL,50 to 75
18,FVPPVTVFPSL,20 to 50
19,LLVEQPPLAGV,50 to 75
20,KVLSNIHTV,20 to 50
21,YLQELIFSV,50 to 75
22,HLTEVYPEL,50 to 75
23,ALSEVDFQL,50 to 75

row,Binder,peptide exchange yield [%]
1,YLADPSNLFVV,50 to 75
2,TLVLTLPTV,≥ 75
3,YQYPRAILSV,50 to 75
4,SVMEVNSGIYRV,50 to 75
5,YMDAPKAAL,20 to 50
6,YLDFSNNRL,20 to 50
7,FLFATPVFI,50 to 75
8,LLLDITPEI,≥ 75
9,YIMEPSIFNTL,50 to 75
10,VLVSDGVHSV,50 to 75
11,FLATSGTLAGI,20 to 50
12,SLATAGDGLIEL,20 to 50
13,SLLEAVSFL,50 to 75
14,ALNPEIVSV,20 to 50
15,NLLELFVQL,50 to 75
16,RLWEEGEELEL,50 to 75
17,KILQQLVTL,50 to 75
18,ILFEDIFDV,50 to 75
19,FLIANVLYL,10 to 20
20,ALDDGTPAL,20 to 50
21,SLVGLLLYL,≥ 75
22,RVANLHFPSV,50 to 75
23,SLNDEVPEV,20 to 50
